Data as given in the supplement of paper PMC9112550, “Optimization of the antimicrobial peptide Bac7 by deep mutational scanning” (BMC Biology, 2022).

Tested on: Escherichia coli TOP10
Test: shrunken log2 fold change of peptide-encoding DNA abundance (4.5 h post-induction vs induction); higher = less antimicrobial activity (less host growth inhibition)
Details: time post-induction: 4.5 h; library: site-saturation at positions 5, 18, 19, 20
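Note: peptides expressed intracellularly from a pBAD plasmid library in pooled LB shake-flask culture, induced with 0.3% L-arabinose, DNA abundance read by NGS, three biological replicates, DESeq2 with apeglm shrinkage.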

In the case of RRIRTRPPRLPRPRPRPKCKPRP, the “shrunken log2 fold change” value is reported as 0.0156.

For RRIRPRPPRLPRPRPRPWICPRP, the “shrunken log2 fold change” value was -0.182.

For RRIRGRPPRLPRPRPRPYYHPRP, the “shrunken log2 fold change” value was -0.204.

In the case of RRIRWRPPRLPRPRPRPDRAPRP, the “shrunken log2 fold change” value is reported as 0.487.

In the case of RRIRNRPPRLPRPRPRPMRGPRP, the “shrunken log2 fold change” value is reported as 0.211.

With RRIRSRPPRLPRPRPRPMSWPRP the “shrunken log2 fold change” value was 0.0314.

With RRIRVRPPRLPRPRPRPVPSPRP the “shrunken log2 fold change” value was -0.0143.

RRIRMRPPRLPRPRPRPIDEPRP was tested, and the “shrunken log2 fold change” value was -0.0525.

In the case of RRIRGRPPRLPRPRPRPAFRPRP, the “shrunken log2 fold change” value is reported as 0.749.

For RRIRLRPPRLPRPRPRPCELPRP, the “shrunken log2 fold change” value was -0.358.

In the case of RRIRDRPPRLPRPRPRPYNKPRP, the “shrunken log2 fold change” value is reported as -0.398.

For RRIRTRPPRLPRPRPRPRNAPRP, the “shrunken log2 fold change” value was 0.0522.

RRIRQRPPRLPRPRPRPGLPPRP was tested, and the “shrunken log2 fold change” value was 0.242.

RRIRSRPPRLPRPRPRPRLRPRP was tested, and the “shrunken log2 fold change” value was 0.287.

RRIRTRPPRLPRPRPRPADEPRP was tested, and the “shrunken log2 fold change” value was -0.0108.

RRIRTRPPRLPRPRPRPAPIPRP was tested, and the “shrunken log2 fold change” value was 0.0613.

RRIRFRPPRLPRPRPRPTFPPRP was tested, and the “shrunken log2 fold change” value was -0.0193.

With RRIRVRPPRLPRPRPRPSETPRP the “shrunken log2 fold change” value was -0.14.

RRIRPRPPRLPRPRPRPYPVPRP was tested, and the “shrunken log2 fold change” value was -0.247.

With RRIRCRPPRLPRPRPRPYSMPRP the “shrunken log2 fold change” value was -0.905.

For RRIRCRPPRLPRPRPRPWKKPRP, the “shrunken log2 fold change” value was -0.0238.

RRIRERPPRLPRPRPRPLFRPRP was tested, and the “shrunken log2 fold change” value was 1.09.

For RRIRQRPPRLPRPRPRPAQNPRP, the “shrunken log2 fold change” value was 0.231.

For RRIRPRPPRLPRPRPRPVFEPRP, the “shrunken log2 fold change” value was 0.222.

For RRIRVRPPRLPRPRPRPTQAPRP, the “shrunken log2 fold change” value was 0.55.

In the case of RRIRYRPPRLPRPRPRPTCRPRP, the “shrunken log2 fold change” value is reported as -0.157.

For RRIRMRPPRLPRPRPRPRTGPRP, the “shrunken log2 fold change” value was 0.561.

In the case of RRIRTRPPRLPRPRPRPYGRPRP, the “shrunken log2 fold change” value is reported as -0.27.

In the case of RRIRNRPPRLPRPRPRPWLLPRP, the “shrunken log2 fold change” value is reported as -0.436.

In the case of RRIRDRPPRLPRPRPRPCYEPRP, the “shrunken log2 fold change” value is reported as 0.00345.

With RRIRCRPPRLPRPRPRPRPWPRP the “shrunken log2 fold change” value was 0.432.

In the case of RRIRERPPRLPRPRPRPTIYPRP, the “shrunken log2 fold change” value is reported as 0.00607.

RRIRFRPPRLPRPRPRPSFSPRP was tested, and the “shrunken log2 fold change” value was -0.702.

RRIRIRPPRLPRPRPRPKAMPRP was tested, and the “shrunken log2 fold change” value was -0.161.

RRIRERPPRLPRPRPRPDGYPRP was tested, and the “shrunken log2 fold change” value was 0.0107.

With RRIRGRPPRLPRPRPRPFNAPRP the “shrunken log2 fold change” value was -0.132.

For RRIRRRPPRLPRPRPRPPRQPRP, the “shrunken log2 fold change” value was 1.04.

RRIRHRPPRLPRPRPRPMIIPRP was tested, and the “shrunken log2 fold change” value was -0.205.

With RRIRKRPPRLPRPRPRPCSAPRP the “shrunken log2 fold change” value was -0.0728.

In the case of RRIRKRPPRLPRPRPRPPVNPRP, the “shrunken log2 fold change” value is reported as 0.04.

RRIRKRPPRLPRPRPRPKIQPRP was tested, and the “shrunken log2 fold change” value was 0.113.

With RRIRPRPPRLPRPRPRPDTRPRP the “shrunken log2 fold change” value was 0.0199.

For RRIRLRPPRLPRPRPRPTIMPRP, the “shrunken log2 fold change” value was -0.334.

In the case of RRIRVRPPRLPRPRPRPSLNPRP, the “shrunken log2 fold change” value is reported as -0.416.

For RRIRIRPPRLPRPRPRPANSPRP, the “shrunken log2 fold change” value was -0.204.

RRIRGRPPRLPRPRPRPGFSPRP was tested, and the “shrunken log2 fold change” value was 0.644.

For RRIRRRPPRLPRPRPRPKWTPRP, the “shrunken log2 fold change” value was -0.149.

For RRIRGRPPRLPRPRPRPHRKPRP, the “shrunken log2 fold change” value was 0.101.

With RRIRRRPPRLPRPRPRPSCTPRP the “shrunken log2 fold change” value was 0.0387.

For RRIRTRPPRLPRPRPRPDNQPRP, the “shrunken log2 fold change” value was -0.337.

With RRIRSRPPRLPRPRPRPFYHPRP the “shrunken log2 fold change” value was -0.28.

For RRIRERPPRLPRPRPRPEWSPRP, the “shrunken log2 fold change” value was 0.0433.

RRIRKRPPRLPRPRPRPKVRPRP was tested, and the “shrunken log2 fold change” value was 0.131.

In the case of RRIRKRPPRLPRPRPRPDAVPRP, the “shrunken log2 fold change” value is reported as 0.698.

In the case of RRIRQRPPRLPRPRPRPCLWPRP, the “shrunken log2 fold change” value is reported as -0.162.

With RRIRDRPPRLPRPRPRPRFWPRP the “shrunken log2 fold change” value was 0.935.

RRIRVRPPRLPRPRPRPGMAPRP was tested, and the “shrunken log2 fold change” value was 0.183.

In the case of RRIRWRPPRLPRPRPRPYSMPRP, the “shrunken log2 fold change” value is reported as -0.314.

In the case of RRIRIRPPRLPRPRPRPGVAPRP, the “shrunken log2 fold change” value is reported as 0.276.

With RRIRLRPPRLPRPRPRPSPCPRP the “shrunken log2 fold change” value was -0.252.

RRIRCRPPRLPRPRPRPYNEPRP was tested, and the “shrunken log2 fold change” value was -0.51.

In the case of RRIRYRPPRLPRPRPRPREIPRP, the “shrunken log2 fold change” value is reported as -0.442.

In the case of RRIRWRPPRLPRPRPRPMKVPRP, the “shrunken log2 fold change” value is reported as 0.138.

In the case of RRIRSRPPRLPRPRPRPIKTPRP, the “shrunken log2 fold change” value is reported as 0.000501.

For RRIRPRPPRLPRPRPRPPQHPRP, the “shrunken log2 fold change” value was 0.485.

For RRIRWRPPRLPRPRPRPIIWPRP, the “shrunken log2 fold change” value was -0.269.

For RRIRIRPPRLPRPRPRPPVTPRP, the “shrunken log2 fold change” value was -0.287.

In the case of RRIRQRPPRLPRPRPRPNLFPRP, the “shrunken log2 fold change” value is reported as -0.0199.

For RRIRFRPPRLPRPRPRPGIKPRP, the “shrunken log2 fold change” value was -0.137.

With RRIRCRPPRLPRPRPRPMVYPRP the “shrunken log2 fold change” value was -0.187.

In the case of RRIRCRPPRLPRPRPRPACHPRP, the “shrunken log2 fold change” value is reported as -0.315.

In the case of RRIRRRPPRLPRPRPRPGNHPRP, the “shrunken log2 fold change” value is reported as 0.0323.

In the case of RRIRARPPRLPRPRPRPALGPRP, the “shrunken log2 fold change” value is reported as 0.73.

RRIRMRPPRLPRPRPRPEIAPRP was tested, and the “shrunken log2 fold change” value was 0.0315.

For RRIRCRPPRLPRPRPRPFLTPRP, the “shrunken log2 fold change” value was -0.565.

For RRIRLRPPRLPRPRPRPFMHPRP, the “shrunken log2 fold change” value was -0.326.

For RRIRLRPPRLPRPRPRPFVFPRP, the “shrunken log2 fold change” value was -0.337.

RRIRHRPPRLPRPRPRPFDMPRP was tested, and the “shrunken log2 fold change” value was -0.00783.

RRIRIRPPRLPRPRPRPDTYPRP was tested, and the “shrunken log2 fold change” value was -0.347.

In the case of RRIRERPPRLPRPRPRPIIRPRP, the “shrunken log2 fold change” value is reported as -0.447.

For RRIRDRPPRLPRPRPRPLQYPRP, the “shrunken log2 fold change” value was -0.373.

In the case of RRIRHRPPRLPRPRPRPMFKPRP, the “shrunken log2 fold change” value is reported as -0.625.

RRIRERPPRLPRPRPRPQHLPRP was tested, and the “shrunken log2 fold change” value was 0.0167.

For RRIRMRPPRLPRPRPRPWYCPRP, the “shrunken log2 fold change” value was -0.336.

RRIRPRPPRLPRPRPRPRAMPRP was tested, and the “shrunken log2 fold change” value was 0.292.

In the case of RRIRPRPPRLPRPRPRPFHYPRP, the “shrunken log2 fold change” value is reported as -1.27.

With RRIRVRPPRLPRPRPRPYGFPRP the “shrunken log2 fold change” value was -0.222.

In the case of RRIRCRPPRLPRPRPRPHQWPRP, the “shrunken log2 fold change” value is reported as 0.321.

For RRIRVRPPRLPRPRPRPHIWPRP, the “shrunken log2 fold change” value was -0.244.

For RRIRHRPPRLPRPRPRPKMNPRP, the “shrunken log2 fold change” value was -0.487.

RRIRGRPPRLPRPRPRPIAMPRP was tested, and the “shrunken log2 fold change” value was 0.401.

For RRIRNRPPRLPRPRPRPNWNPRP, the “shrunken log2 fold change” value was -0.691.

With RRIRNRPPRLPRPRPRPIDQPRP the “shrunken log2 fold change” value was -0.058.

RRIRWRPPRLPRPRPRPMFAPRP was tested, and the “shrunken log2 fold change” value was 0.216.

With RRIRKRPPRLPRPRPRPKGCPRP the “shrunken log2 fold change” value was 0.0534.

For RRIRRRPPRLPRPRPRPMLGPRP, the “shrunken log2 fold change” value was 0.15.

With RRIRFRPPRLPRPRPRPSPNPRP the “shrunken log2 fold change” value was -0.399.

In the case of RRIRRRPPRLPRPRPRPLVAPRP, the “shrunken log2 fold change” value is reported as 0.755.

For RRIRQRPPRLPRPRPRPIAMPRP, the “shrunken log2 fold change” value was -0.0149.

In the case of RRIRKRPPRLPRPRPRPCCMPRP, the “shrunken log2 fold change” value is reported as 0.103.

In the case of RRIRCRPPRLPRPRPRPLWPPRP, the “shrunken log2 fold change” value is reported as 0.076.

For RRIRARPPRLPRPRPRPQDVPRP, the “shrunken log2 fold change” value was -0.136.

With RRIRLRPPRLPRPRPRPDWVPRP the “shrunken log2 fold change” value was -0.0945.

For RRIRLRPPRLPRPRPRPSDEPRP, the “shrunken log2 fold change” value was -0.255.

With RRIRGRPPRLPRPRPRPIIVPRP the “shrunken log2 fold change” value was -0.043.

In the case of RRIRPRPPRLPRPRPRPNKYPRP, the “shrunken log2 fold change” value is reported as -0.662.

For RRIRSRPPRLPRPRPRPHSVPRP, the “shrunken log2 fold change” value was -0.036.

In the case of RRIRWRPPRLPRPRPRPQIQPRP, the “shrunken log2 fold change” value is reported as -0.0544.

RRIRDRPPRLPRPRPRPIDFPRP was tested, and the “shrunken log2 fold change” value was 0.132.

With RRIRHRPPRLPRPRPRPFPKPRP the “shrunken log2 fold change” value was 0.0904.

In the case of RRIRHRPPRLPRPRPRPLQGPRP, the “shrunken log2 fold change” value is reported as 0.00978.

In the case of RRIRHRPPRLPRPRPRPFDCPRP, the “shrunken log2 fold change” value is reported as -0.186.

For RRIRERPPRLPRPRPRPYWIPRP, the “shrunken log2 fold change” value was -0.376.

With RRIRQRPPRLPRPRPRPKNKPRP the “shrunken log2 fold change” value was -0.29.

For RRIRARPPRLPRPRPRPMWTPRP, the “shrunken log2 fold change” value was 0.0207.

RRIRQRPPRLPRPRPRPYKYPRP was tested, and the “shrunken log2 fold change” value was -1.49.

With RRIRERPPRLPRPRPRPPGNPRP the “shrunken log2 fold change” value was 0.106.

With RRIRHRPPRLPRPRPRPESKPRP the “shrunken log2 fold change” value was -0.135.

For RRIRNRPPRLPRPRPRPQYDPRP, the “shrunken log2 fold change” value was -0.0449.

For RRIRFRPPRLPRPRPRPQFGPRP, the “shrunken log2 fold change” value was -0.0484.

RRIRDRPPRLPRPRPRPRRCPRP was tested, and the “shrunken log2 fold change” value was 0.142.

With RRIRCRPPRLPRPRPRPAAGPRP the “shrunken log2 fold change” value was 0.378.

With RRIRNRPPRLPRPRPRPIHEPRP the “shrunken log2 fold change” value was -0.00804.

For RRIRMRPPRLPRPRPRPQLMPRP, the “shrunken log2 fold change” value was 0.0471.

For RRIRTRPPRLPRPRPRPHLCPRP, the “shrunken log2 fold change” value was -0.17.
